Measured values as given in paper doi:10.1101/2021.02.16.431366, “Functional basis for calmodulation of the TRPV5 calcium channel” (bioRxiv, 2021).
Where no end group is shown, it is not given here.

Key:
CaM agarose resin = target: T1, CaM agarose resin (UniProt P62157 1-149); assay: pull-down; competition: 0-100 µM TRPV5 peptide added to the CaM agarose pull-down of GFP-TRPV5 lysate; TRPV5 band semi-quantified and fitted (non-linear sigmoidal) against log peptide concentration; Ca2+ concentration not stated; conditions: both partners purified
T1 construct: calmodulin coupled to agarose; Immobilised on agarose by the supplier; source: bought: Sigma Aldrich (CaM agarose resin)

[1] = target: the molecule itself; assay: single molecule photobleaching counting (smPB, TIRF microscopy); living HEK293 cells with low expression; bleaching steps of confined spots at the cell surface counted and fitted to a binomial distribution (eGFP folding probability 72%); CaM-eGFP counted in spots positive for mCherry-TRPV5, in presence and absence of extracellular Ca2+

| IC50 (CaM agarose resin) | Binder | stoichiometry N [1] |
| --- | --- | --- |
| 5.2 µM | {Biotin‑C6}-QSSNSHRGWEILRRNTLGHL (TRPV5 distal C-terminal helix; the limits are counted from W702, the residue changed in the printed W702A peptide; also called distal peptide; distal TRPV5 peptide; source: synthetic peptide, bought: EMC microcollections GmbH) [TRPV5 distal helix peptide] | – |
| – | GFP-TRPV5 (natural protein, rabbit, UniProt Q9XSM3 1-730, looked up, TRPV5, rabbit, cloned into a pcDNA5 vector with an N-terminal GFP tag; also called eGFP-TRPV5; source: HEK293, transfected, in lysate; in living cells for single molecule photobleaching; not shown: GFP, N-terminal, kept) MGACPPKAKGPWAQLQKLLISWPVGEQDWEQYRDRVNMLQQERIRDSPLLQAAKENDLRLLKILLLNQSCDFQQRGAVGETALHVAALYDNLEAATLLMEAAPELAKEPALCEPFVGQTALHIAVMNQNLNLVRALLARGASVSARATGAAFRRSPHNLIYYGEHPLSFAACVGSEEIVRLLIEHGADIRAQDSLGNTVLHILILQPNKTFACQMYNLLLSYDEHSDHLQSLELVPNHQGLTPFKLAGVEGNTVMFQHLMQKRKHVQWTCGPLTSTLYDLTEIDSWGEELSFLELVVSSKKREARQILEQTPVKELVSFKWKKYGRPYFCVLASLYILYMICFTTCCIYRPLKLRDDNRTDPRDITILQQKLLQEAYVTHQDNIRLVGELVTVTGAVIILLLEIPDIFRVGASRYFGQTILGGPFHVIIITYASLVLLTMVMRLTNMNGEVVPLSFALVLGWCSVMYFARGFQMLGPFTIMIQKMIFGDLMRFCWLMAVVILGFASAFHITFQTEDPNNLGEFSDYPTALFSTFELFLTIIDGPANYSVDLPFMYCITYAAFAIIATLLMLNLFIAMMGDTHWRVAQERDELWRAQVVATTVMLERKMPRFLWPRSGICGYEYGLGDRWFLRVENHHDQNPLRVLRYVEAFKCSDKEDGQEQLSEKRPSTVESGMLSRASVAFQTPSLSRTTSQSSNSHRGWEILRRNTLGHLNLGLDLGEGDGEEVYHF | 4 |
